The values below come from US20200010542A1 (MorphoSys, published 2020).

Test [1] addresses T1, human IL-17C (human, UniProt Q9P0M4 19-197).
T1 sequence: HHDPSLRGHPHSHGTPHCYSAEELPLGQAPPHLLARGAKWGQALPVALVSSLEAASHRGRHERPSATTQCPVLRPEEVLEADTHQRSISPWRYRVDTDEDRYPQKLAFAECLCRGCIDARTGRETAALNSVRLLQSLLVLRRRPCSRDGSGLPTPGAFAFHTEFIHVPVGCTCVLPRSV
Nature of the test: cell-based or functional assay.

For test [2], the target named is T2, cynomolgus IL-17C (cynomolgus monkey, UniProt Q9P0M4 19-197 (human entry), limits assumed).
T2 chain: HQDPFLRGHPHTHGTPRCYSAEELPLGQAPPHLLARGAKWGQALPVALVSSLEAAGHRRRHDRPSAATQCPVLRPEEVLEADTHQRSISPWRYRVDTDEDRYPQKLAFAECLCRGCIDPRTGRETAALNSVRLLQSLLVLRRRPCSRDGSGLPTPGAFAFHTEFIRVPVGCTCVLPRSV
Nature of the test: cell-based or functional assay.

Test [3] addresses T3, mouse IL-17C (mouse, UniProt Q8K4C5 17-194).
T3 sequence: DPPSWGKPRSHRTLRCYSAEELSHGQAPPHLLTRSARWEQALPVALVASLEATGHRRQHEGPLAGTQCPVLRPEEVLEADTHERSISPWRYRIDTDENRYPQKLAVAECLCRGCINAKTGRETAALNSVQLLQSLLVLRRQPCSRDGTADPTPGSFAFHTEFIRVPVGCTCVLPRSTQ
Briefly: cell-based or functional assay.

In test [4] the target is T1, human IL-17C. Briefly: cell-based or functional assay. This is another data set of the same source.
The target of test [5] is T1, human IL-17C. Briefly: SET (ECL based), IgG, bivalent affinity, hGT454. Here is the method: (§1) Additionally monovalent Fab and bivalent IgG affinity was determined by SET. Therefore purified Fabs and IgGs were titrated on human or mouse IL-17C for EC₅₀ determination. The results confirmed the proposed avidity effect exerted by IgG antibodies forming mainly class III complexes.
(§2) Solution equilibrium titration (SET) was basically performed as described in the literature (Friquet et al., (1985) J. Immunol. Meth. 77: 305-19). In order to improve the sensitivity and accuracy of the SET method, it was transferred from classical ELISA to ECL based technology (Haenel et al. (2005) Anal Biochem. 339.1: 182-84).

In test [6] the target is T3, mouse IL-17C. Briefly: SET (ECL based), IgG, bivalent affinity, mGT454. The procedure:
as §1, §2

The target of test [7] is T1, human IL-17C. Nature of the test: MSD receptor binding inhibition: IgG with biotinylated IL-17C on coated IL17RE/Fc (head: hIL-17C-hIL17RE; text: mouse IL17RE/Fc). Here is the method:
Purified IL-17C specific IgGs were tested in mIL-17 RE interaction assay. Therefore MA6000 384 well plates (Meso Scale Discovery, MSD) were coated with 30 μl mouse IL17RE/Fc chimeric protein at 75 ng/ml in PBS at 4° C. overnight. The next day a serial antibody dilution (concentrations from 0.001 to 100 nM) were pre-incubated for 30 min at RT with an equal volume of biotinylated IL-17C. After blocking of plates for 1 h with 2.5% BSA in PBST, previously formed antibody-ligand complexes were added for 1 h to coated IL17RE/Fc and receptor binding was detected via Streptavidin-ECL using MSD Sector Imager.

The target of test [8] is T1, human IL-17C. Briefly: SET (ECL based), Fab, monovalent affinity, hGT454. The procedure:
as §1, §2

In test [9] the target is T3, mouse IL-17C. Briefly: SET (ECL based), Fab, monovalent affinity, mGT454. The procedure: as §1, §2

B1: mab_1 (IgG1) (antibody, V domains shown)
VH: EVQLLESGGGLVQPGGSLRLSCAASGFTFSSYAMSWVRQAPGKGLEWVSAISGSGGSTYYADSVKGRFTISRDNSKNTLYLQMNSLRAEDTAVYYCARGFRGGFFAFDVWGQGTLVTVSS
VL: SYELTQPPSVSVSPGQTASITCSGDKLGDKYAYWYQQKPGQSPVLVIYQDSKRPSGIPERFSGSNSGNTATLTISGTQAEDEADYYCQAWTFPLLTWVFGGGTKLTVLG
notes: Human IgG1 from the Ylanthia library, VH3-23 / Vlambda3-1, made in HKB11 cells
As usually defined, the EC50 is the midpoint of the concentration-response curve. A high value points to a need for much substance. For orientation: IC50 means the concentration that inhibits the measured activity by half. Regarding B1, the entries for the “NF-kB reporter gene assay (IgG) IC50 [pM]” value in [1], in test [2] and in [3] were 29 pM, 24 pM and 46 pM, respectively. Further, the “NHEK assay IC50 [pM] (expression of DEFB4A)” value in [4] was 415 pM. In addition, the EC50 in test [5] was 0.017 nM; in test [6], 0.15 nM. In test [7], this molecule had an IC50 of 0.04 nM.

B2: mab_1 Fab (Fab, V domains shown)
VH: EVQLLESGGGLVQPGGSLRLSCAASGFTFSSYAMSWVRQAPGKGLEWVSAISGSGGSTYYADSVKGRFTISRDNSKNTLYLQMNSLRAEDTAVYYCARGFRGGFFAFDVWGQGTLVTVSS
VL: SYELTQPPSVSVSPGQTASITCSGDKLGDKYAYWYQQKPGQSPVLVIYQDSKRPSGIPERFSGSNSGNTATLTISGTQAEDEADYYCQAWTFPLLTWVFGGGTKLTVLG
notes: His-tagged Fab made in E. coli; also called mab_1 (Fab format)
On to B2, for which the EC50 is 4.8 nM in test [8] and 72 nM in test [9].

B3: mab_8 Fab (Fab, V domains shown)
VH: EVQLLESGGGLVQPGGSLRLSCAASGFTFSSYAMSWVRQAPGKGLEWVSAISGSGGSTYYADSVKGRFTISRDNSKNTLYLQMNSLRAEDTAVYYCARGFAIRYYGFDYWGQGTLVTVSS
VL: SYELTQPPSVSVSPGQTASITCSGDKLGDKYAYWYQQKPGQSPVLVIYQDSKRPSGIPERFSGSNSGNTATLTISGTQAEDEADYYCQVFTFPLVTTVFGGGTKLTVLG
notes: His-tagged Fab made in E. coli; also called mab_8 (Fab format)
For the molecule B3, the EC50 turned out to be 2.7 nM in test [8] and 490 nM in test [9].

B4: mab_8 (IgG1) (antibody, V domains shown)
VH: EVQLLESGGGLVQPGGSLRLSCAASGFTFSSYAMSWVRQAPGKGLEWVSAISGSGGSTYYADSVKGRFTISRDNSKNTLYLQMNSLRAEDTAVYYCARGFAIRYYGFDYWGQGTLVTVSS
VL: SYELTQPPSVSVSPGQTASITCSGDKLGDKYAYWYQQKPGQSPVLVIYQDSKRPSGIPERFSGSNSGNTATLTISGTQAEDEADYYCQVFTFPLVTTVFGGGTKLTVLG
notes: as for B1
For B4, the “NF-kB reporter gene assay (IgG) IC50 [pM]” value amounted to 42 pM in test [1], 39 pM in test [2] and 1770 pM in test [3]. Further, the “NHEK assay IC50 [pM] (expression of DEFB4A)” value in test [4] came to 93 pM. In addition, the EC50 in test [5] was 0.022 nM; in test [6], 3.35 nM. Further, the IC50 in [7] was found to be 0.13 nM.
